Reference: patent publication US20230295259A1 (Protagonist Therapeutics, Inc., priority 2020, published 2023)
Starred links: 1 amine or outer side, 2 acyl side, 3 side chain; linkers in the order of their positions; H or OH if unused. Positions of bridges follow the written chain, without caps; N, C: chain ends. Non-standard residues stand in square brackets, D forms with d. Groups on a side chain read outwards from the residue. *: point of attachment. Glu(OMe) = COC(=O)CC[C@H](N[*:1])C(=O)[*:2]; C18 diacid = O=C(O)CCCCCCCCCCCCCCCCC(=O)*; Dip = N[C@H](C(=O)O)C(c1ccccc1)c1ccccc1; Palmitoyl = CCCCCCCCCCCCCCCC(=O)*; β3hF = N[C@H](CC(=O)O)Cc1ccccc1; hLeu = CC(C)CC[C@H](N)C(=O)O; Isovaleryl = CC(C)CC(=O)*; Dap = NC[C@H](N)C(=O)O; AEEA = NCCOCCOCC(=O)O; Ahx = NCCCCCC(=O)O

T1: human ferroportin (SLC40A1) fused in frame with GFP, stably expressed in HEK293 cells (human, UniProt Q9NP59 1-571)
T1 sequence (looked up): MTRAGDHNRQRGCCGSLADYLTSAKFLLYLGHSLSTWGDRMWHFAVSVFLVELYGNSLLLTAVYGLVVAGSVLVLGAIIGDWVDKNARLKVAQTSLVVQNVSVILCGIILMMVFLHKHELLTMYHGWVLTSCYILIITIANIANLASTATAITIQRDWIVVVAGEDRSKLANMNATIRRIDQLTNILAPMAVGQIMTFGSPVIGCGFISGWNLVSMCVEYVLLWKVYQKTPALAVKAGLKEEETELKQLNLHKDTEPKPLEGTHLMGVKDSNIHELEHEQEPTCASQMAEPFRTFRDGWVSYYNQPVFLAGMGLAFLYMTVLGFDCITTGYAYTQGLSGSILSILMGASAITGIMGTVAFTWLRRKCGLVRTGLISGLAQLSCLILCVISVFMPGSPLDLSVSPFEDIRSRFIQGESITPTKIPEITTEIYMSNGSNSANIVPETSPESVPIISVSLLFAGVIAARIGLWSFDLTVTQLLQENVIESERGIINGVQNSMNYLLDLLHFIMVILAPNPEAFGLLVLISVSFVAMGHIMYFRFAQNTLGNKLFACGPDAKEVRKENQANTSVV


Biological target: T1, human ferroportin (SLC40A1) fused in …
Experiment: cell-based or functional assay

Binder	IC50: FPN internalisation
XXTHXPCIXXXC ([Isovaleric Acid]-[Glu(OMe)]-T-H-[Dpa]-P-C-I-[Lys(PEG2_1PEG2_DMG_N_2ae_C18_Diacid)]-[bhPhe]-[(D)Lys]-C-NH2) [Seq. No. 545]	14.6 nM
XXTHXPXIXXXXC ([Isovaleric Acid]-[Glu(OMe)]-T-H-[Dpa]-P-[(D)Cys]-I-[(D)Lys]-[bhPhe]-[Lys(PEG2_1PEG2_DMG_N_2ae_C18_Diacid)]-[(D)Lys]-C-NH2) [Seq. No. 494]	107 nM
Isovaleryl-ETH[Dip]PCI[dK][β3hF]K([Ahx-Palmitoyl])[dR]C-NH2 (disulfide 6-12 (inferred)) [Seq. No. 475]	42.8 nM
XEXHXPCIXXXXC (not fully specified; [Isovaleric Acid]-E-[Lys(Acrylamide)]-H-[Dpa]-P-C-I-[(D)Lys]-[bhPhe]-[Lys(Ahx_Palm)]-[(D)Lys]-C-NH2) [Seq. No. 551]	90 nM
XXTHXPCIXXXC ([Isovaleric Acid]-[Glu(OMe)]-T-H-[Dpa]-P-C-I-[Lys(1PEG2_1PEG2_Dap_C18_Diacid)]-[bhPhe(4-Me)]-[(D)Lys]-C-NH2) [Seq. No. 505]	16.7 nM
Isovaleryl-[Dap]TH[Dip]PCI[dK][β3hF]K([Ahx-Palmitoyl])[dR]C-NH2 (disulfide 6-12 (inferred)) [Seq. No. 502]	55.7 nM
XXTXXPCIXXXC ([Isovaleric Acid]-[Glu(OMe)]-T-[4Pal]-[Dpa]-P-C-I-[Lys(1PEG2_1PEG2_Ahx_C18_Diacid)]-[bhPhe]-[(D)Lys]-C-NH2) [Seq. No. 496]	10.6 nM
XXTHXPCIXXXC ([Isovaleric Acid]-[IsoGlu]-T-H-[Dpa]-P-C-I-[Lys(1PEG2_1PEG2_Ahx_C18_Diacid)]-[bhPhe]-[(D)Lys(PEG11_OMe)]-C-NH2) [Seq. No. 533]	203 nM
XETXXPCIXXXC ([Isovaleric Acid]-E-T-[3Quin]-[Dpa]-P-C-I-[Lys(1PEG2_1PEG2_Dap_C18_Diacid)]-[bhPhe]-[(D)Lys]-C-NH2) [Seq. No. 479]	475 nM
XXTHXPXIXXXC ([Isovaleric Acid]-[Glu(OMe)]-T-H-[Dpa]-P-[(D)Cys]-I-[Lys(PEG2_1PEG2_DMG_N_2ae_C18_Diacid)]-[bhPhe]-[(D)Lys]-C-NH2) [Seq. No. 495]	14.9 nM
XXTHXPCIXXXC ([Isovaleric Acid]-[Glu(OMe)]-T-H-[Dpa]-P-C-I-[Lys(1PEG2_1PEG2_Dap_C18_Diacid)]-[Phe(4-COOH)]-[(D)Lys]-C-NH2) [Seq. No. 503]	180 nM
XXTHXPCIXXXXC ([Isovaleric Acid]-[Glu(OMe)]-T-H-[Dpa]-P-C-I-[(D)Lys]-[bhPhe]-[Lys(DMG_N_2ae_Palm)]-[(D)Lys]-C-NH2) [Seq. No. 526]	28.1 nM
XXTYXPCIXXXC ([Isovaleric Acid]-[Glu(OMe)]-T-Y-[Dpa]-P-C-I-[Lys(1PEG2_1PEG2_Ahx_C18_Diacid)]-[bhPhe]-[(D)Lys]-C-NH2) [Seq. No. 497]	35.3 nM
XXTHXPCIXXXXC ([Isovaleric Acid]-[Glu(OMe)]-T-H-[Dpa]-P-C-I-[(D)Lys]-[bhPhe]-[Lys(Ahx_DMG_N_2ae_Palm)]-[(D)Lys]-C-NH2) [Seq. No. 528]	32.4 nM
XETXXPCIXXXXC (not fully specified; [Isovaleric Acid]-E-T-[Lys(Acrylamide)]-[Dpa]-P-C-I-[(D)Lys]-[bhPhe]-[Lys(Ahx_Palm)]-[(D)Lys]-C-NH2) [Seq. No. 552]	48 nM
XXTHXPCIXXXC ([Isovaleric Acid]-[(D)Arg]-T-H-[Dpa]-P-C-I-[Lys(1PEG2_1PEG2_Dap_C18_Diacid)]-[bhPhe]-[(D)Lys]-C-NH2) [Seq. No. 537]	33.8 nM
XETHXPCIXXXXC ([Isovaleric Acid]-E-T-H-[Dpa]-P-C-I-[(D)Lys]-[bhPhe]-[N-MeLys(Ahx_Palm)]-[(D)Lys(Carnitine)]-C-NH2) [Seq. No. 541]	26 nM
XETHXPCIXXXC ([Isovaleric Acid]-E-T-H-[Dpa]-P-C-I-[Lys(PEG2_1PEG2_DMG_N_2ae_C18_Diacid)]-[bhPhe]-[(D)Lys]-C-NH2) [Seq. No. 544]	9.26 nM

The remaining lines, values ahead:

IC50: FPN internalisation	Binder
21 nM	Isovaleryl-[Glu(OMe)]TH[Dip]PCIK([AEEA-AEEA-Dap-C18 diacid])[β3hF][dR]C-NH2 (disulfide 6-11 (inferred)) [Seq. No. 535]
10.1 nM	XXTHXPCIXXXC ([Isovaleric Acid]-[Glu(OMe)]-T-H-[Dpa]-P-C-I-[Lys(1PEG2_1PEG2_Dap_C18_Diacid)]-[bhPhe]-[(D)Lys(Ac)]-C-NH2) [Seq. No. 521]
20.6 nM	Isovaleryl-[Glu(OMe)]TH[Dip]PCIK([AEEA-AEEA-Dap-C18 diacid])[hLeu][dK]C-NH2 (disulfide 6-11 (inferred)) [Seq. No. 509]
46.3 nM	XEXHXPCIXXXXC (not fully specified; [Isovaleric Acid]-E-[Dab]-H-[Dpa]-P-C-I-[(D)Lys]-[bhPhe]-[Lys(Ahx_Palm)]-[(D)Lys]-C-NH2) [Seq. No. 548]
124 nM	XXTWXPCIXXXC ([sovaleric Acid]-[Glu(OMe)]-T-W-[Dpa]-P-C-I-[Lys(1PEG2_1PEG2_Ahx_C18_Diacid)]-[bhPhe]-[(D)Lys]-C-NH2) [Seq. No. 498]
52.5 nM	Isovaleryl-[Glu(OMe)]TH[Dip]PCI[dK][β3hF]K([Ahx-Palmitoyl])[dR]C[dR]-NH2 (disulfide 6-12 (inferred)) [Seq. No. 500]
69.9 nM	Isovaleryl-ETHFPCIK(Ac)F[dK]C-NH2 (disulfide 6-11 (inferred)) [Seq. No. 478]
39.9 nM	Isovaleryl-[Glu(OMe)]TH[Dip]PCI[dK][β3hF]K([Ahx-Palmitoyl])[dR]C-NH2 (disulfide 6-12 (inferred)) [Seq. No. 501]
